{
  "source": "patent US20170096652",
  "proteins": {"B1": {"name": "PprI protease (gene pprI, dr_0167; GeneID: 1798483; NCBI-GI: 15805204) of Deinococcus radiodurans (protein)", "chain": "MPSANVSPPCPSGVRGGGMGPKAKAEASKPHPQIPVKLPFVTAPDALAAAKARMRDLAAAYVAALPGRDTHSLMAGVPGVDLKFMPLGWRDGAFDPEHNVILINSAARPERQRFTLAHEIGHAILLGDDDLLSDIHDAYEGERLEQVIETLCNVAAAAILMPEPVIAEMLERFGPTGRALAELAKRAEVSASSALYALTEQTPVPVIYAVCAPGKPPREQAASDEDAGPSTEKVLTVRASSSTRGVKYTLASGTPVPADHPAALALATGMEVREESYVPFRSGRKMKAEVDAYPSRGIVAVSFEFDPARLGRKDSEQADRDEPQDAAQ"}},
  "target": "transcription factor DdrO (Gene ID: 1798752; NP_296294.1) of Deinococcus radiodurans",
  "data": [
    {"protein": "B1", "values": [
      {"measurement": "PprI cleavage activity detected by Western blotting", "result": "PprI cleaves DdrO into two fragments"},
      {"measurement": "protease activity in vitro, SDS-PAGE (40 minutes, 2.0 mM MnCl2)", "result": "DdrO was cleaved by PprI into two fragments"},
      {"measurement": "protease activity in vitro, SDS-PAGE (40 minutes, 3.0 mM MnCl2)", "result": "DdrO was cleaved by PprI into two fragments"},
      {"measurement": "protease activity in vitro, SDS-PAGE (40 minutes, 5.0 mM MnCl2)", "result": "DdrO was cleaved by PprI into two fragments"}
    ]}
  ]
}
